Experimental findings from the RNAGym collection of RNA variant scans (doi:10.7554/elife.90254) are described below.

The chains are these.
B1: LINE1-full (parent)
chain: UACGUAGGUGGUUUUCCCCUGAUAGUGCUAAGGGGGCCUGGAAGUUUGGACUGGGCAGAGCUCAACACAGCGUGGCAAAGUGGCUGUGGCUAGACUGCCUCUCUGGAUUCCUCGUCACUCAGCAGGGCAUCUCUGAGAGAAAUGCC

In the series the parent is B1. Put plainly: self-cleavage, relative activity (ratio to wild type); higher = more cleavage; in vitro, sequencing; the parent is a self-cleaving ribozyme.
Consider A65G U119A, for which the self-cleavage is 0.05.

A64G A124G: the self-cleavage amounted to 0.28. For A65G A78G, the self-cleavage was 0.04. Take C66U U73A: the self-cleavage is 0.03. With A65U C71U the figure was 0.05. A65C A69U: the self-cleavage came out at 0.36. Turning to A67U A69G, the self-cleavage worked out at 0.03. Turning to A65G A79U, the self-cleavage was found to be 0.04. On to A65G A117U, for which the self-cleavage came to 0.04. With A64G C66U the figure was 0.08; with A67U G89A, 0.03. Take A67G A121C: the self-cleavage was determined as 0.62.

In the case of A65G A107U, the self-cleavage is 0. Regarding C66A U115C, the self-cleavage was 0.05. The result for A67G C101U reads 0.75; that for A64G C123U, 0.26; that for C66U A117G, 0.05. With A64G U87C the figure was 0.06; with A64U A69G, 0.17; with A64U A69U, 0.07. Turning to C66U U100A, the self-cleavage was 0.02. With C66U U104C, the self-cleavage was determined as 0.05. With A67G U134A the figure was 0.39. As to C66G U81A, the self-cleavage came out at 0.02. As for A65G G93A, the self-cleavage came to 0.02. Turning to A65C G74U, the self-cleavage came to 0.03. The result for A67G A78U reads 0.65. In the case of A64U U132C, the self-cleavage was determined as 0.49. With A64U U132G the figure was 0.61; with A65U U143A, 0.06; with A65U U143C, 0.24. With A67G U100A the figure was 0.06.

Consider A67U A136C, for which the self-cleavage was 0.03.

Regarding A67C A129G, the self-cleavage is 0. As to A64U U119C, the self-cleavage came out at 0.61. For A67U A138G, the self-cleavage was determined as 0.13. With A67U A138U, the self-cleavage worked out at 0.15. With A64G C118U the figure was 0.29; with A65U U87A, 0.25; with A65U U87C, 0.04. As to A65G G122U, the self-cleavage amounted to 0.07. For the variant A64U C110A, the self-cleavage was 0.44. The result for A64U G70A reads 0.07; that for A65U U132C, 0.2.

In the case of A67U C110U, the self-cleavage is 0.14. With C66U U115C the figure was 0.01; with A65U U73C, 0.16; with A67U U96C, 0.07. As for A64U A136U, the self-cleavage stood at 0.45. With A64U A136G the figure was 0.71. With A65G C123U the figure was 0.04. With A65G C123G the figure was 0.03; with A65G G135U, 0.14; with A65G A94U, 0.05. For the variant A65U U102A, the self-cleavage was 0.17.

A65U U102C: the self-cleavage is 0.3. Turning to A65G G86A, the self-cleavage was determined as 0.02.

A64U U130G: the self-cleavage stood at 0.43. With A64U U130C, the self-cleavage was determined as 0.55. The result for A65U C99U reads 0.1; that for A64G U115A, 0.08. With A64G U115G, the self-cleavage worked out at 0.35. The result for A64C U134C reads 0.61.

As to A65G U112A, the self-cleavage turned out to be 0.04. With A67U G88A the figure was 0.03. Consider A65U A138U, for which the self-cleavage stood at 0.16. On to A65G C128U, for which the self-cleavage came to 0.05. The result for A65C A141G reads 0.02; that for C68A G88A, 0.01; that for A65U C111U, 0.24. As for A65G U104C, the self-cleavage was found to be 0.01. As for A64C U87C, the self-cleavage came to 0.22. For the variant A65U U85C, the self-cleavage turned out to be 0.06. Turning to A65U U85G, the self-cleavage was 0.1.

For the variant A67U U100C, the self-cleavage is 0.27. For the variant A64C U73A, the self-cleavage is 0.32. The result for C68A C133A reads 0.02. The result for A65G C71G reads 0.05; that for A64G C116A, 0.1; that for A65G G105A, 0.01. For the variant A64U U85C, the self-cleavage is 0.08.

In the case of A64G G86A, the self-cleavage stood at 0.08.

For A65G G127A, the self-cleavage was determined as 0.05. The result for A67G C76U reads 0.62. With A67G U108C the figure was 0.6; with A67G U108A, 0.5; with A64C U143C, 0.35.

Consider A64C U96C, for which the self-cleavage worked out at 0.18. The result for C66G reads 0.04; that for C66A, 0.05. With C66U the figure was 0.05; with A65G U132A, 0.04. As for A67G U85G, the self-cleavage was 0.12.

Turning to A67G U85C, the self-cleavage was 0.1. With A67G U85A the figure was 0.08; with A64U A65G, 0.07; with A67G G135A, 0.68. For the variant A64G U108C, the self-cleavage was found to be 0.31. Turning to A67G U143A, the self-cleavage was found to be 0.42. Take A67G U143C: the self-cleavage came to 0.57.

For the variant C66U U91A, the self-cleavage worked out at 0.05. Turning to A64G G125U, the self-cleavage turned out to be 0.33. Consider A64U A142U, for which the self-cleavage is 0.46. Take A64U A142G: the self-cleavage was found to be 0.47. With A67U U81C the figure was 0.13; with A67G G86A, 0.05. Turning to A65G C113U, the self-cleavage worked out at 0.04. A67U A78G: the self-cleavage is 0.08. With A64C U115A the figure was 0.38; with A64C U115C, 0.47; with C66U A78G, 0.04. For A67C C118G, the self-cleavage was found to be 0.05. With A64U C113A the figure was 0.17; with A64U C113U, 0.28.

Turning to A64C C145U, the self-cleavage is 0.4. The result for C66A A107U reads 0.05. With C66A A107G the figure was 0.03; with A67G G74U, 0.54; with A64U U112C, 0.44. Regarding A65U A94G, the self-cleavage was 0.1. With A67G G82A the figure was 0.23. With A67C A94G the figure was 0; with A65G C90G, 0.09; with A65G C90A, 0.01. The result for A65C U81A reads 0.02; that for A65U U134A, 0.13.

Consider A65U C133U, for which the self-cleavage was found to be 0.16. The result for A67G C131G reads 0; that for A67G C131A, 0.72.

For A67C A140G, the self-cleavage was 0.06.

On to A65G U134C, for which the self-cleavage came to 0.06. With A65G U134G the figure was 0.03; with A64G A141U, 0.17; with A64G A141C, 0.11. The result for A64G A140G reads 0.26; that for A64U A78G, 0.27. Regarding A64U U109A, the self-cleavage was 0.49. With A67G U81A the figure was 0.63; with C66U A129G, 0.01. The result for A64U A67G reads 0.15.

Take A67U C99A: the self-cleavage was determined as 0.

For A65U A77G, the self-cleavage was determined as 0.3. On to A67G A140G, for which the self-cleavage was determined as 0.42. With A64U U81A the figure was 0.85. The result for C66U A142C reads 0.04; that for A67U U87A, 0.57; that for A67G A138U, 0.56. The result for A67G A138G reads 0.67; that for A65G U109G, 0.23; that for A65G U109C, 0.06. Consider A65C A129G, for which the self-cleavage was determined as 0.09. The result for A65G C95U reads 0.05; that for A65G U102C, 0.08; that for A65G U102G, 0. With A65G U102A, the self-cleavage came out at 0.01. On to A64G U73C, for which the self-cleavage was determined as 0.17. The result for A64G U73A reads 0.19; that for A64G A117G, 0.21.

Take A64U A94G: the self-cleavage turned out to be 0.09. On to A64U A94C, for which the self-cleavage is 0.05. The result for A64U A141G reads 0.32; that for A65G A129G, 0.03.

As for A65G A129U, the self-cleavage came out at 0.02. The result for A65G C145G reads 0.02; that for A64G G127U, 0.21. With A64G G127A the figure was 0.18; with A64G U134A, 0.24.
